Like-named read-outs stand apart in the source and are kept apart here.
Legend:
[1] = biological target: T1, recombinant human VISTA (His-tagged) (human, UniProt Q9H7M9 33-194); assay: ELISA, plate coated with human VISTA
T1 construct: bought soluble protein (Sino Biological); also called hVISTA; human VISTA polypeptide

[2] = biological target: T1, recombinant human VISTA (His-tagged); assay: ELISA, plate coated with human VISTA; remark: listed apart in the source
human B7H7 = biological target: T2, human B7H7 (human, UniProt Q9UM44 23-344); assay: ELISA, plate coated with the antigen
T2 construct: also called HHLA2
T2 sequence (looked up): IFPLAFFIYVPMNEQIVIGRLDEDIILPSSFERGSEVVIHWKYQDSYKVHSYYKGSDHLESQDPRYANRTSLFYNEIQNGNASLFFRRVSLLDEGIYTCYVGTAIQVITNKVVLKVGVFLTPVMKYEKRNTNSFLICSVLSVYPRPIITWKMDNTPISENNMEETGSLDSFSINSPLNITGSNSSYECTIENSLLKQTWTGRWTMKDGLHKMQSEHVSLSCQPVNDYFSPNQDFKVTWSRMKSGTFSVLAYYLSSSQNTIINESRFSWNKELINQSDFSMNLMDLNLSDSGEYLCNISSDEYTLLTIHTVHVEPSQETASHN

human CTLA4 = human CTLA4 (human, UniProt P16410 36-162); assay: ELISA, plate coated with the antigen
Sequence of human CTLA4 (P16410 36-162 limits assumed): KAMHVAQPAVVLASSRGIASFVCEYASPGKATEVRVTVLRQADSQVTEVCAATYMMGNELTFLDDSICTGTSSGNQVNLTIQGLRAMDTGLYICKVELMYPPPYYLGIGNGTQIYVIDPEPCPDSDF

human B7H4 = biological target: T3, human B7H4 (human, UniProt Q7Z7D3 25-258, limits assumed); assay: ELISA, plate coated with the antigen
T3 construct: also called VTCN1
T3 sequence (looked up): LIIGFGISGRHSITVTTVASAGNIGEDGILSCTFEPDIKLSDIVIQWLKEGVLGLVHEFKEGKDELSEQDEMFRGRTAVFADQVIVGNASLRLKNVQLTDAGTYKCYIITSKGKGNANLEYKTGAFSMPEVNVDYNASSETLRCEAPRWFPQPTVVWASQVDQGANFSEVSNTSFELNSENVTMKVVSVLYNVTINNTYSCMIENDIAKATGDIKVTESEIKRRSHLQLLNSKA

human B7H6 [3] = biological target: T4, human B7H6 (human, UniProt Q68D85 25-262); assay: ELISA, plate coated with the antigen
T4 construct: also called NCR3LG1
T4 sequence (looked up): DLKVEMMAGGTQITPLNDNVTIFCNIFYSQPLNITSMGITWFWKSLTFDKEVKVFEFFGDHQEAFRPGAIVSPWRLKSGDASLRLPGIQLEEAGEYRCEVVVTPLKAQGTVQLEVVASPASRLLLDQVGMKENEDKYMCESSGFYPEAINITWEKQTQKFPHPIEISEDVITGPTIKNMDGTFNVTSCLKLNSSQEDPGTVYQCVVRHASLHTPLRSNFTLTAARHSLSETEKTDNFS

[4] = biological target: T1, recombinant human VISTA (His-tagged); assay: BLI (Octet QK384): His-tagged human VISTA on anti-Penta-HIS tips, V4 1000 to 31.3 nM as analyte, global fit
Method: All measurements were performed at 25° C. with agitation at 1000 rpm. Kinetic measurements for antigen binding were performed by loading anti-VISTA antibody at different concentrations (indicated in the Figures) for 120 s, followed by a 120 s dissociation time by transferring the biosensors into assay buffer containing wells. Sensograms were referenced for buffer effects and then fitted using the Octet QK384 user software (Pall ForteBio, USA).
Kinetic responses were subjected to a global fitting using a one site binding model to obtain values for association (kon), dissociation (koff) rate constants and the equilibrium dissociation constant (KD). Only curves that could be reliably fitted with the software (R²>0.90) were included in the analysis.

[5] = biological target: T1, recombinant human VISTA (His-tagged); assay: antigen-binding ELISA; HMBD-002 in F10, day 20 at 40°C
human PD-L1 = biological target: T5, human PD-L1 (human, UniProt Q9NZQ7 19-239); assay: ELISA, plate coated with human B7H1 (PDL1), antibody titrated
T5 construct: captured through a His tag in the BLI experiments; also called hPD-L1; B7H1/PDL-1
T5 sequence (Q9NZQ7 19-239 limits assumed): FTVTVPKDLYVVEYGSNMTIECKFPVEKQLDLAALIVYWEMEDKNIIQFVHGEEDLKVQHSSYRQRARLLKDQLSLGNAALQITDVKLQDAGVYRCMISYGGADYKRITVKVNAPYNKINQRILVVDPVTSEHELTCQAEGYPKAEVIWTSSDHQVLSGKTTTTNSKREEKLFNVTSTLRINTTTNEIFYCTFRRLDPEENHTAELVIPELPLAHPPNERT
Method: (§1) 384-well plates were coated with 1 μg/ml of target antigen diluted in PBS for 16 hrs at 4° C. […] After washing, plates were developed with colorimetric detection substrate 3,3′,5,5′-tetramethylbenzidine (Turbo-TMB; Pierce) for 10 min.

[6] = biological target: T1, recombinant human VISTA (His-tagged); assay: antigen-binding ELISA; HMBD-002 10 mg/mL in F7, day 0
[7] = biological target: T1, recombinant human VISTA (His-tagged); assay: antigen-binding ELISA; HMBD-002 in F1, day 10 at 40°C
[8] = biological target: T1, recombinant human VISTA (His-tagged); assay: antigen-binding ELISA; HMBD-002 in F4, day 20 at 40°C
[9] = biological target: T1, recombinant human VISTA (His-tagged); assay: antigen-binding ELISA; HMBD-002 in F5, day 20 at 40°C
[10] = biological target: T1, recombinant human VISTA (His-tagged); assay: ELISA on coated human VISTA, antibody diluted in buffer of pH 5.5
Method: as §1

human PD-1 = human PD-1 (human, UniProt Q15116 25-167); assay: ELISA, plate coated with human PD-1, antibody titrated
Sequence of human PD-1 (Q15116 25-167 limits assumed): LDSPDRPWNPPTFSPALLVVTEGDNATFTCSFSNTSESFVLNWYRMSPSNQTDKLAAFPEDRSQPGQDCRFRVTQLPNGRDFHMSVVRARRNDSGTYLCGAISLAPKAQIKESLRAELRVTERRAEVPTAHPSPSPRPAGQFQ
Method: as §1

[11] = biological target: T1, recombinant human VISTA (His-tagged); assay: antigen-binding ELISA; HMBD-002 in F2, day 10 at 40°C
[12] = biological target: T1, recombinant human VISTA (His-tagged); assay: ELISA on coated human VISTA, antibody diluted in buffer of pH 6.5
Method: as §1

[13] = biological target: T1, recombinant human VISTA (His-tagged); assay: antigen-binding ELISA, day 30 at 40°C
[14] = biological target: T1, recombinant human VISTA (His-tagged); assay: antigen-binding ELISA; HMBD-002 in F10, day 10 at 40°C
[15] = biological target: T1, recombinant human VISTA (His-tagged); assay: antigen-binding ELISA; HMBD-002 10 mg/mL in F8, day 0
[16] = biological target: T1, recombinant human VISTA (His-tagged); assay: antigen-binding ELISA; HMBD-002 in F7, day 30 at 40°C
human B7H6 [17] = biological target: T4, human B7H6; assay: ELISA, plate coated with human B7H6, antibody titrated
Method: as §1

B1: anti-VISTA clone V4-C24 IgG1 (antibody, V domains shown)
VH: QVQLQESGPGLVKPSDTLSLTCTVSGYSITSDYTWNWIRQTPGKGLEWIGHITYSGSVSYNPSLRSRVTISRDTSKNQFSLKLSSVTAADTATYSCARALYYPWYFDVWGTGTTVTVSS
VL: EIVLTQSPATLSLSPGERATLSCRASSSVGYIHWYQQKPGQAPRPLIYTTSYRATGIPARFSGSGSGTDNTLTISSLEPEDSAVYYCQQWSSYPPITFGGGTKLEVKR
In the case of B1, the “EC50 (read off the curve)” value [1] is reported as roughly 20 pM.

B2: anti-VISTA clone V4-C27 IgG1 (antibody, V domains shown)
VH: QVQLQESGPGLVKPSDTLSLTCTVSGYSITSDYTWNWIRQTPGKGLEWIGHITYSGSVSYNPSLRSRVTISRDTSKNQFSLKLSSVTAADTATYSCARALYYPWYFDVWGTGTTVTVSS
VL: EIVLTQSPATLSLSPGERATLSCRASSSVGYIHWYQQKPGQAPRPLIYATYNRATGIPARFSGSGSGTDNTLTISSLEPEDSAVYYCQQWSSYPPITFGGGTKLEVKR
For B2, the “EC50 (read off the curve)” value [2] was roughly 10 pM, the binding result (human B7H7) was “no binding (tested: log -7.5 M)” and the binding result (human CTLA4) was “no binding (tested: log -7.5 M)”. B2: no binding (tested: log -7.5 M) (human B7H4); no binding (tested: log -7.5 M) (human B7H6 [3]).

B3: anti-VISTA clone 4M2-C12 IgG1 (antibody)
heavy: not shown
light: DIVITQTPAILSTSPGEKVTMTCRASSSVGYIHWYQQKPGSSPKPWIYATSNLASGVPARFSGSGSGTSNSLTITRVEAEDAATYYCQQWSSYPPITFGGGTKLEVKRTVAAPSVFIFPPSDEQLKSGTASVVCLLNNFYPREAKVQWKVDNALQSGNSQESVTEQDSKDSTYSLSSTLTLSKADYEKHKVYACEVTHQGLSSPVTKSFNRGEC
notes: mouse variable regions on human IgG1/kappa constant regions; also called V4; V4pr
B3 gave a kon [4] of 45400 M⁻¹ s⁻¹.

B4: V4-C26 hIgG4 (antibody)
heavy: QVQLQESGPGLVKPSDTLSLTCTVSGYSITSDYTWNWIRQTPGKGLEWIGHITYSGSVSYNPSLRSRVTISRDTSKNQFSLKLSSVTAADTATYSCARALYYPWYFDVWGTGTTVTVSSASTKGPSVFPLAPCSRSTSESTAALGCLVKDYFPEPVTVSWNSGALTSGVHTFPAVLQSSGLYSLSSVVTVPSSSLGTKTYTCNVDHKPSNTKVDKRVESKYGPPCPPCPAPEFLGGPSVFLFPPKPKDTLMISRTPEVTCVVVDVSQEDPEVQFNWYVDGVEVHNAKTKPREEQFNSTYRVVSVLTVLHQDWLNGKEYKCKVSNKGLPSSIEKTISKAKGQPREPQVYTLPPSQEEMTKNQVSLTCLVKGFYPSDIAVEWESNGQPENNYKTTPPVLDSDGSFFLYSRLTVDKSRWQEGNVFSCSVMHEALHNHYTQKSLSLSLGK
light: EIVLTQSPATLSLSPGERATLSCRASSSVGYIHWYQQKPGQAPRPIIYTTSNRATGIPARFSGSGSGTDNTLTISSLEPEDSAVYYCQQWSSYPPITFGGGTKLEVKRTVAAPSVFIFPPSDEQLKSGTASVVCLLNNFYPREAKVQWKVDNALQSGNSQESVTEQDSKDSTYSLSSTLTLSKADYEKHKVYACEVTHQGLSSPVTKSFNRGEC
notes: human IgG4 (S228P)/kappa format; also called HMBD-002; HMBD-002-V4C26
B4 was tested, and the EC50 [5] was 0.0235 nM, the binding result (human PD-L1) was “no binding (tested: about 3e-8 M)” and the EC50 [6] was 0.0289 nM. For the same binder, the EC50 [7] was 0.0306 nM, the EC50 [8] was 0.0205 nM and the EC50 [9] was 0.0239 nM. For the same binder, the EC50 [10] was 0.0731 nM, the binding result (human PD-1) was “no binding (tested: about 3e-8 M)” and the EC50 [11] was 0.0322 nM. For the same binder, the EC50 [12] was 0.0363 nM, the “fold increase in affinity” value [13] was 1.65 fold and the EC50 [14] was 0.0281 nM. The EC50 [15] was 0.0395 nM, the EC50 [16] was 0.0217 nM and the binding result (human B7H6 [17]) was “no binding (tested: about 3e-8 M)”.

— patent US20250313631A1 (HUMMINGBIRD BIOSCIENCE PTE, published 2025)
